Where a chain is given by its changes, count along the chain named. In names and notes the source's numbering stands. Where two headings read alike, the source gives them in different places.

Test [1] deals with T1, Recombinant human PD-1 human-FC Chimera (R&D Systems) (human, UniProt Q15116 25-170).
T1 construct: Bought construct; also called recombinant human-PD-1 extracellular domain; hPD-1 (ELISA); not shown: human Fc part of the bought chimera
Description: ELISA, coated recombinant human PD-1 human-Fc chimera. The procedure: (§1) The binding potency of chimeric and humanized anti-PD-1 antibodies to recombinant human-PD-1 extracellular domain was determined by ELISA. Recombinant human PD-1 human-FC Chimera (R&D Systems) was coated on 384-well MaxiSorp™ flat bottom plates (Nunc) at a concentration of 0.625 μg/mL in PBS (Vendor) for 60 minutes at room temperature. Coated plates were washed three times with PBS, 0.1% Tween (PBS-T), blocked by incubation with PBS, 2% BSA, 0.05% Tween for 60 minutes at room temperature, and washed for an additional three times with PBS-T. Anti-PD-1-antibodies were added in PBS, 0.5% BSA, 0.05% Tween (ELISA buffer) in concentrations ranging from 1,000 to 0.06 ng/mL or 2,500 to 0.15 ng/mL and the plate was incubated for 60 minutes at room temperature. […] After 3 washes with PBS-T, horseradish peroxidase coupled goat-anti-human-IgG (Fab′)₂ fragment (AbD Serotec; Cat. No. STAR126P) was added in ELISA buffer at a dilution of 1:5,000. The plate was incubated for 60 minutes at room temperature, and washed 6 times with PBS-T before TMB solution (Thermo Fisher Scientific) was added. After 10 minutes HCl was added and the absorbance at wavelengths of 450 and 620 nm recorded using a Tecan Infinite M1000 reader. Data was fitted with a 4-parameter logistic model and EC50 values calculated using GraphPad Prism 8.4.3 (GraphPad Software, San Diego, CA, USA).
(In an ELISA, binding on a coated surface is turned into a signal by an enzyme label.)

The target of test [2] is T2, full-length human PD-1 expressed on cells (human, UniProt Q15116 25-288). Description: cell-based or functional assay.
The target in test [3] is T1, Recombinant human PD-1 human-FC Chimera …. Description: ELISA, coated recombinant human PD-1 human-Fc chimera. The procedure: as §1
This is another data set of the same source.

In test [4] the target is T2, full-length human PD-1 expressed on …. The test can be described thus: cell binding, HEK-293 cells expressing full-length human PD-1, CellInsight CX5 imaging. The method, then:
(§2) Binding of chimeric and humanized anti-PD-1 antibodies to cell surface expressed hPD-1 was analyzed using HEK-293 cells ectopically expressing full-length human-PD1 (BPS Biosciences; Cat. No. 60680). Cell cultures were grown in MEM containing 10% FCS, ix MEM NEAA, 1 mM Na pyruvate and 100 μg/mL Hygromycin B. Hygromycin B was omitted when cells were plated for testing antibody binding. 1,000 cells in 20 μL medium were seeded per well in black 384-well cell-culture treated plates with clear bottom and were incubated for 2 hours at 37° C. and 5% CO₂. Anti-PD-1 antibodies were added in 5 μL medium to final concentrations ranging from 1,000 to 0.06 ng/mL or 620 to 0.45 ng/mL. […] After an 18 hours incubation at 37° C. and 5% CO₂, plates were washed once with 25 μL PBS, 0.05% Tween 20 (cell wash buffer) and Alexa-Fluor-488-conjugated AffiniPure goat-anti-human-IgG F(ab′)₂ fragment (Vendor) was added at a concentration of 0.8 μg/mL in 20 μL medium. Plates were incubated for 4 hours at 37° C. and 5% CO₂ in the dark, washed once with 25 μL cell wash buffer and incubated for 10 minutes with 20 μL medium containing 5 μg/ml Hoechst (Invitrogen). Cell-associated immunofluorescent signals were recorded using a CellInsight CX5 high content imager device (Thermo Fisher). Data was fitted with a 4-parameter logistic model and EC50 values calculated using GraphPad Prism 8.4.3.

The target is the same in test [5]. The test can be described thus: cell-based or functional assay. The source holds these as a separate data set.
For test [6] the target is unchanged. The test can be described thus: cell binding, HEK-293 cells expressing full-length human PD-1, CellInsight CX5 imaging. The method, then:
as §2
The source holds these as a separate data set.

Test [7] has the same target. The test can be described thus: flow cytometry, K562 cells electroporated with full-length human PD-1 mRNA, dilutions of RiboMab-containing supernatant. On the technique in general: A flow cytometer gives signals particle by particle.
Description: 20×10⁶ cells K562 cells growing in log-phase were used for electroporation of full-length human PD-1. Cells in 250 μL X-Vivo 15 medium (LONZA Technologies, cat. no. BE02-060F) were combined in 4 mm gap cuvettes with 10 μg human PD-1-encoding IVT-mRNA. Cells were immediately electroporated with a BTX ECM830 (BTX Harvard Apparatus) with the following setting: 200 V, 3 pulses, 8 ms.
Binding of RiboMabs to K562 cells expressing PD-1 was analyzed by flow cytometry. […] Cells were washed twice with FACS buffer, re-suspended in 60 μL FACS buffer and analyzed on a BD FACSCanto™ II flow cytometer (BD Biosciences). Binding curves were analyzed by non-linear regression (log(agonist) vs. response—variable slope (four parameters)) using GraphPad Prism V9.1.0 software.

T1 sequence (Q15116 25-170, change not shown): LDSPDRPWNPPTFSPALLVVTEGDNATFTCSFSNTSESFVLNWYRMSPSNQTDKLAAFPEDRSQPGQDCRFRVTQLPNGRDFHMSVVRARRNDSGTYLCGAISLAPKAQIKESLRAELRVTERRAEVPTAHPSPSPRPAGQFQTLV
T2 sequence (Q15116 25-288 limits assumed): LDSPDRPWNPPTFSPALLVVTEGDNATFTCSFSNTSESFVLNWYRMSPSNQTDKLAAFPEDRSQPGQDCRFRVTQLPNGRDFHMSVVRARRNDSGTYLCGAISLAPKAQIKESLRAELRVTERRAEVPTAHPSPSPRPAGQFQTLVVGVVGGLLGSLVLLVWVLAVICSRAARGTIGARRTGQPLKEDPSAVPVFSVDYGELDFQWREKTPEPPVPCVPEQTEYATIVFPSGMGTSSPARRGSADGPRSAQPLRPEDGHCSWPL

B1: MAB-19-0202 (antibody, V domains shown)
VH: QSVEESGGRLVTPGTPLTLTCTVSGFSLYSYNMGWVRQAPGKGLEYIGIISGGTIGHYASWAKGRFTISKTSSTTVDLKMTSLTTEDTATYFCARAFYDDYDYNVWGPGTLVTVSS
VL: AAVLTQTPSPVSAAVGGTVTISCQSSQSVYGNNQLSWYQQKPGQPPKLLIYQASKLETGVPSRFKGSGSGTQFTLTISDLESDDAATYYCAGGYSSSSDTTFGGGTEVVVK
notes: Chimeric rabbit/human antibody: rabbit variable regions cloned N-terminal of human IgG1 / kappa constant parts with L234A and L235A (LALA)
For orientation: EC50 means the concentration giving half of the maximal effect. As to B1, the EC50 in test [1] stood at 4 ng/mL; in test [3], 3.5 ng/mL; in test [4] it was 0.5 ng/mL. The “hPD-1 blockade assay IC50” value was determined as 324 ng/mL in test [2] and 56 ng/mL in test [5].

B2: MAB-19-0233 (antibody, human IgG1, V domains shown)
VH: QSLEESGGDLVKPGASLTLTCKASGIDFSSVYYMCWVRQAPGKGLEWIACIYVGSSGVSYYATWAKGRFTISKTSSTTVTLQMTSLTAADTATYFCARAGYVGAVYVTLTRLDLWGQGTLVTVSS
VL: AAVLTQTPSPVSAAVGGTVTISCQSSQSIYTNNDLAWYQQKPGQPPKLLIYDASKLASGVPSRFSGSGSGTQFTLTISGVQSDDAATYYCLGGYDDDADNAFGGGTEVVVK
notes: Chimeric rabbit/human antibody, human IgG1 constant parts with L234A and L235A (LALA)
With B2, the EC50 in test [1] came out at 7.2 ng/mL; in test [3], 6.3 ng/mL; in test [6], 16.8 ng/mL; in test [4], 2.4 ng/mL. Moreover, in test [2], the “hPD-1 blockade assay IC50” value came to 657 ng/mL.

B3: RiboMab-19-0233 (antibody, V domains shown)
VH: B2 VH
VL: B2 VL
notes: Tested as HEK293T/17 supernatant, concentration not determined
In the case of B3, the “fold difference in EC50 values (RiboMab-19-0233 against RiboMab-19-0202)” value in test [7] is roughly 2.5 fold.

B4: MAB-19-0598 (antibody, IgG1, V domains shown)
VH: QVQLVESGGDVVKPGRSLRLSCKASGIDFSSVYYMCWVRQAPGKGLEWIACIYVGSSGVSYYATWAKGRFTISRDTSTSTLFLQMNSLRAGDTATYYCARAGYVGAVYVTLTRLDLWGQGTLVTVSS
VL: DIQMTQSPSSLSASVGGTVTITCQSSQSIYTNNDLAWYQQKPGQPPKLLIYDASKLASGVPSRFSGSGSGTQFTLTISSLQSEDAATYYCLGGYDDDADNAFGGGTEVVVK
notes: Recombinant humanized hIgG1-LALA antibody
On to B4, for which the EC50 in test [1] was determined as 8.8 ng/mL; in test [4] it was 5.7 ng/mL. In addition, the “hPD-1 blockade assay IC50” value in test [5] stood at 368 ng/mL.

B5: MAB-19-0594 (antibody, IgG1, V domains shown)
VH: EVQLEESGGGLVKPGGSLRLSCAASGIDFSSVYYMCWVRQAPGKGLEWVSCIYVGSSGVSYYATWAKGRFTISRDNSKNTLYLQMNSLRAEDTAVYYCARAGYVGAVYVTLTRLDLWGRGTLVTVSS
VL: B4 VL
notes: as for B4
For the molecule B5, the EC50 was 14.6 ng/mL in test [1] and 9.5 ng/mL in test [4]. In addition, the “hPD-1 blockade assay IC50” value in test [5] is 311 ng/mL.

B6: MAB-19-0583 (antibody, IgG1, V domains shown)
VH: B4 VH
VL: DVVMTQSPSTVSASVGDRVTLTCQSSQSIYTNNDLAWYQQKPGQPPKLLIYDASKLASGVPDRFSGSGSGTDFTLTISSLQADDFATYYCLGGYDDDADNAFGQGTKVEIK
notes: as for B4
As for B6, the EC50 in test [1] stood at 7.5 ng/mL; in test [4] it was 3.6 ng/mL. Besides, the “hPD-1 blockade assay IC50” value in test [5] is 188 ng/mL.

B7: MAB-19-0208 (antibody, human IgG1, V domains shown)
VH: QSVEESGGRLVTPGTPLTLTCTVSGFSLSRYYISWVRQAPGKGLEWIGSFYADSGTTWYATWVKGRFTFSTASSTTVDLKMTSPTTEDTATYFCARNSGDAQFNIWGPGTLVTVSS
VL: AAVLTQTPSPVSAAVGGTVSISCQSSESVYNKNQLCWYQQKPGQRPKLLIYDASTLASGVPSRFSGSGSGTQFTLTISDVQSDAAATYYCAGGYSVTSDTTFGGGTEVVVR
notes: Chimeric rabbit/human antibody, human IgG1 constant parts with L234A and L235A (LALA); also called chimeric anti-PD-1 MAB-19-0208
In the case of B7, the “hPD-1 blockade assay IC50” value in test [2] is 870 ng/mL. In addition, the EC50 in test [3] was found to be 4 ng/mL; in test [6], 13.9 ng/mL.

B8: MAB-19-0217 (antibody, human IgG1, V domains shown)
VH: QSVEESGGRLVTPGTPLTLTCTVSGFSLSRYYMTWVRQAPGKGLEWIGIIYPDTGTTWYASWVKGRFTFSKTSSTTVDLKMTSPTTEDTATYFCARSTTDAQFNIWGPGTLVTVSS
VL: B7 VL with S28N, N31T, K32D, D79G, A84D, V96T, R111K
notes: Chimeric rabbit/human antibody, human IgG1 constant parts with L234A and L235A (LALA); also called chimeric anti-PD-1 MAB-19-0217
Take B8: the “hPD-1 blockade assay IC50” value in test [2] came to 720 ng/mL. In addition, the EC50 in test [3] is 9.2 ng/mL; in test [6] it was 6.3 ng/mL.

B9: MAB-19-0223 (antibody, human IgG1, V domains shown)
VH: QEHLVESGGGLVQPEGSLTLTCKASGIDFSDTYWICWVRQPPGKGLEWIGCIGIGGSGSTYYAGWAKGRFTISKTSSTTVTLQMTTLTDADTATYFCATEIPYFNVWGPGTLVTVSS
VL: AQVLTQTPSSVSAAVGGTVTINCQSSQSVYNKNWLAWYQQKPGQPPKLLIYDASKLTSGVPSRFKGSGSGTQFTLTISGVQSDDAATYYCQGTYDVNGWLVAFGGGAEVVVK
notes: Chimeric rabbit/human antibody, human IgG1 constant parts with L234A and L235A (LALA); also called chimeric anti-PD-1 MAB-19-0223
Regarding B9, the “hPD-1 blockade assay IC50” value in test [2] amounted to 913 ng/mL. The values for the EC50 in test [3] and in test [6] were 6.6 ng/mL and 7 ng/mL, respectively.

B10: MAB-19-0603 (antibody, IgG1, V domains shown)
VH: QVQLVESGGGLVQPGTSLRLSCSVSGFSLYSYNMGWVRQAPGKGLEYIGIISGGTIGHYASWAKGRFTISRDTSKTTLYLQMNSLTTEDTATYFCARAFYDDYDYNVWGPGTLVTVSS
VL: DIVMTQSPSSLSASVGDRVTITCQSSQSVYGNNQLSWYQQKPGKAPKLLIYQASKLETGVPSRFSGSGSGTDFTLTISSLQPEDFATYYCAGGYSSSSDTTFGGGTKVVIK
notes: as for B4
Take B10: the EC50 was 3.3 ng/mL in test [1] and 2.8 ng/mL in test [4]. Besides, the “hPD-1 blockade assay IC50” value in test [5] was found to be 85 ng/mL.

B11: MAB-19-0618 (antibody, IgG1, V domains shown)
VH: B10 VH
VL: AIQLTQSPSSLSASVGGTVTITCQSSQSVYGNNQLSWYQQKPGQPPKLLIYQASKLETGVPSRFRGSGSGTQFTLTISSLQSEDFATYYCAGGYSSSSDTTFGGGTEVVVK
notes: as for B4
Turning to B11, the EC50 in test [1] amounted to 8 ng/mL; in test [4] it was 1.7 ng/mL. In test [5], the “hPD-1 blockade assay IC50” value amounted to 57 ng/mL.

B12: MAB-19-0613 (antibody, IgG1, V domains shown)
VH: B10 VH
VL: B10 VL with V3Q, Q40K, K44Q, G104P, V109D
notes: as for B4
As to B12, the EC50 in test [1] came out at 4.4 ng/mL; in test [4], 1.2 ng/mL. For the same molecule, the “hPD-1 blockade assay IC50” value in test [5] stood at 93 ng/mL.

B13: MAB-19-0608 (antibody, IgG1, V domains shown)
VH: B10 VH
VL: B10 VL with V3Q, S10T, D72Q, E83D, T87S, G104Q, V109E
notes: as for B4
On to B13, for which the EC50 in test [1] was determined as 7.7 ng/mL; in test [4] it was 2.8 ng/mL. Further, in test [5], the “hPD-1 blockade assay IC50” value is 63 ng/mL.

These data come from patent US20230399403A1 (BIONTECH, published 2023).
